According to US20230159961A1, “BIOSYNTHESIS OF CHEMICALLY DIVERSIFIED NON-NATURAL TERPENE PRODUCTS” (Board of Trustees of Michigan State University, priority 2019, published 2023):

Key:
[1] = test system: Coleus forskohlii CfTPS2 and Salvia sclarea SsSCS; experiment: coupled class II / class I in vitro assay with methyl-GGDP (C21) substrate; assay type: biochemical; settings: CfTPS2 and SsSCS used together; product structure similar to sclareol (FIG. 10)
Method: A typical high-throughput in vitro diTPS assay in lml contained 5 μg substrate, 200 μg purified enzyme (class II plus class I for labdanoid-type diterpenes, or class I for irregular diterpenes), and 10mM buffer with magnesium. Reactions are carried out for 1 hour at 16° C., followed by vortexing with an equal volume of hexane to extract the products into the organic phase, prior to removal for GC/MS analysis.
Reactions leading to novel compounds can be scaled up for structural elucidation. The scale-up procedure involved the same composition. However, in coupled assays of pairs of diTPS, the class II enzyme may be pre-incubated with substrate for two hours, before adding the class I diTPS.
Enzymes Coleus forskohlii CfTPS2 (SEQ ID NO:69) and Salvia sclarea SsSCS (SEQ ID NO:61) were coupled in an in vitro assay to ascertain whether the synthetic unnatural methyl-GGDP (C21) substrate can efficiently yield the corresponding C21 methyl-diterpene.

[2] = test system: DgTPS1 (casbene synthase); experiment: in vitro diTPS assay: casbene synthase DgTPS1 reacted with unGGPP, products by GC/MS; assay type: biochemical, Daphne genkwa; settings: product mass consistent with a methyl-derivative of casbene
Method: A conserved irregular, macrocyclic structure is consistent with the fragmentation pattern of the major fragments of casbene (FIG. 5C-5D).
To assess substrate tolerance of class II diTPS, substrates are screened against a panel of twenty-five enzymes. Recombinant diTPS were expressed heterologously in E. coli, purified, and reconstituted in in vitro assays with the substrate to be tested. The products from the enzymatic action on the substrate were analyzed structural elucidation and downstream functionalization.
In particular, pET28b+plasmids containing N-terminally truncated diTPS variants (having the plastidial targeting signal removed to generate pseudomature enzymes) are transformed into E. coli BL-21DE3-C41 OverExpress cells. Cultures are grown at 37° C. and 180 rpm until the optical density at 600 nm reached 0.3 to 0.4. Cultures are cooled to 16° C., and expression is induced at an optical density at 600 nm of approximately 0.6 with 0.2 mM isopropylthiogalactoside. Cells are collected and lysed before purification of the His6-tagged enzymes with Ni-NTA columns.
A typical high-throughput in vitro diTPS assay in lml contained 5 μg substrate, 200 μg purified enzyme (class II plus class I for labdanoid-type diterpenes, or class I for irregular diterpenes), and 10mM buffer with magnesium. […]

[3] = test system: class I labdane-type diTPS; experiment: class I labdane-type diTPS and tested substrates converted (Table 2); assay type: biochemical; settings: decalin-core diphosphate substrates that the enzyme converted, enzymes functionally expressed
Text: Instead of accepting the acyclic GGPP, class I enzymes can use structurally diverse decalin-core diphosphate intermediates generated by class II enzymes. At this stage, additional cyclizations, double-bond-, hydride and alkyl shifts can occur, followed by either proton abstraction or quenching of the final carbocation through a water molecule.
All enzymes in Table 2 were functionally expressed. Microbial sequences were expressed as synthetic variants, expression optimized for E. coli. See also FIG. 7.

Molecule | Substrate (tested substrates converted) [3] | other results
CC(C)=CCC/C(C)=C/CC/C(C)=C/CC/C(C)=C(\C)COP(=O)(O)OP(=O)(O)O [methyl-GGDP (C21)] | – | product formation in coupled enzyme assay [1]: new methyl-diterpene product
CC(C)=CCC/C(C)=C/CC/C(C)=C/CC/C(C)=C(\C)COP(=O)(O)OP(=O)(O)O [unGGPP] | – | conversion of substrate to product, detected by gas chromatography / GC-MS [2]: novel product with a shifted retention time
KgTPS2 (protein, listed as Kitasatospora griseola) MPDAIEFEHEGRRNPNSAEAESAYSSIIAALDLQESDYAVISGHSRIVGAAALVYPDADAETLLAASLWTACLIVNDDRWDYVQEDGGRLAPGEWFDGVTEVVDTWRTAGPRLPDPFFELVRTTMSRLDAALGAEAADEIGHEIKRAITAMKWEGVWNEYTKKTSLATYLSFRRGYCTMDVQVVLDKWINGGRSFAALRDDPVRRAIDDVVVRFGCLSNDYYSWGREKKAVDKSNAVRILMDHAGYDESTALAHVRDDCVQAITDLDCIEESIKRSGHLGSHAQELLDYLACHRPLIYAAATWPTETNRYR | ent-, syn-, (+)-CPP, (+)-8-LPP, ent-8-LPP, KPP, 9-LPP | –
SsSCS (protein, listed as Salvia sclarea) MSLAFNVGVTPFSGQRVGSRKEKFPVQGFPVTTPNRSRLIVNCSLTTIDFMAKMKENFKREDDKFPTTTTLRSEDIPSNLCIIDTLQRLGVDQFFQYEINTILDNTFRLWQEKHKVIYGNVTTHAMAFRLLRVKGYEVSSEELAPYGNQEAVSQQTNDLPMIIELYRAANERIYEEERSLEKILAWTTIFLNKQVQDNSIPDKKLHKLVEFYLRNYKGITIRLGARRNLELYDMTYYQALKSTNRFSNLCNEDFLVFAKQDFDIHEAQNQKGLQQLQRWYADCRLDTLNFGRDVVIIANYLASLIIGDHAFDYVRLAFAKTSVLVTIMDDFFDCHGSSQECDKIIELVKEWKENPDAEYGSEELEILFMALYNTVNELAERARVEQGRSVKEFLVKLWVEILSAFKIELDTWSNGTQQSFDEYISSSWLSNGSRLTGLLTMQFVGVKLSDEMLMSEECTDLARHVCMVGRLLNDVCSSEREREENIAGKSYSILLATEKDGRKVSEDEAIAEINEMVEYHWRKVLQIVYKKESILPRRCKDVFLEMAKGTFYAYGINDELTSPQQSKEDMKSFVF | ent-, syn-, (+)-CPP, (+)-8-LPP, ent-8-LPP, KPP, 9-LPP | –
ArTPS3 (protein, Ajuga reptans) MSLSFTIKVTPFSGQRVHSSTESFPIQQFPTITTKSAMAVKCSSLSTATVSFQDFVGKIRDTINGKVDNSPAATTIHPADIPSNLCVVDTLQRLGVDRYFQSEIDSVLNDTYRFWQQKGEDIFTDVACRAMAFRLLRVKGYEVSSDELASYAEQEHVNLQPSDITTVIELYRASQTRLYEDEGNLEKLHTWTSNFLKQQLQSETISDEKLHKQVEYYLKNYHGILDRAGVRQSLDLYDINQYQNLKSTDRFPTLSNEDLLEFAKQDFNFCQAQHQKELQQLQRWYADCKLDTLTYGRDVVRVASFLTAAIFGEPEFSDARLAFAKHIILVTRIDDFFDHGGSIEESYKILDLVKEWEDKPAEEYPSKEVEILFTAVYNTVNDLAEMAYIEQGRSIKPLLIKLWVEILTSFKKELDSWTEDTELTLEEYLASSWVSIGCRICSLNSLQFLGITLSEEMLSSEECMELCRHVSSVDRLLNDVQTFEKERLENTINSVSLQLAEAQREGRTITEEEAMSKIKDLADYHRRQLMQMVYKDGTIFPRQCKDVFLRVCRIGYYLYASGDEFTTPQQMMGDMKSLVYEPLNTSSS | PgPP, (+)-CPP, (+)-8-LPP, ent-CPP | –
